Key:
[1] = target: monoclonal antibody (moAb) G12; assay: competitive ELISA with G12-HRP on a plate coated with Sigma gliadin
[2] = target: PWG gliadin (intact, undigested) (wheat); assay: immunochromatographic strips based on G12 moAb (GlutenTox stick); gliadin
[3] = target: PWG gliadin after gastric and intestinal digestion (pepsin, then trypsin and chymotrypsin); assay: immunochromatographic strips based on G12 moAb (GlutenTox stick); hydrolyzed gliadin
[4] = target: 33-mer peptide from alpha-2 gliadin; assay: immunochromatographic strips based on G12 moAb (GlutenTox stick); untreated 33-mer peptide
[5] = target: 33-mer peptide from alpha-2 gliadin; assay: immunochromatographic strips based on G12 moAb (GlutenTox stick); 33-mer peptide after digestion

Sequence of 33-mer peptide from alpha-2 gliadin (peptide, as listed by the source): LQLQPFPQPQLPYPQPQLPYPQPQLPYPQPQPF

Substance | concentration of 33-mer (33-mer equivalents) [1] | detection limit [2] | detection limit [3] | detection limit [4] | detection limit [5]
PWG gliadin (intact, undigested) | 21.6 ng 33-mer/µg |  |  |  | 
PWG gliadin after gastric and intestinal digestion (pepsin, then trypsin and chymotrypsin) | 7.5 ng 33-mer/µg |  |  |  | 
PWG gliadin after gastric digestion (pepsin) | 24.5 ng 33-mer/ng |  |  |  | 
monoclonal antibody (moAb) G12 |  | 30 ng/mL | 50 ng/mL | 0.5 ng/mL | 0.5 ng/mL

Reference: patent US20160320385A1
